These results are taken from publication PMC4673829, “Chemical basis for the recognition of trimethyllysine by epigenetic reader proteins” (Nature Communications, 2015).

For orientation: Kd means the free concentration of one partner at which half of the binding sites on the other are occupied at equilibrium, for simple one-to-one binding.

The target in assay [1] is JARID1A PHD3 domain (for ITC). Briefly: ITC; H3G4 (5 mM) titrated to JARID1A (330 μM), H3G4 (3 mM) titrated to TAF3 (200 μM); 19 injections; Microcal Auto-iTC200; one set of sites model. (ITC needs no label: the signal is the heat of the interaction.)
Assay [2] deals with JARID1A PHD3 domain (for ITC). The experiment in a line: ITC; 350–600 μM H3K4me3 or H3C4me3 peptide titrated to 25–40 μM protein (JMJD2A–H3C4me3: 3 mM peptide to 200 μM JMJD2A); 19 injections; Microcal Auto-iTC200; one set of sites model; 5–7 repeats.
Assay [3] has as its target T1, JMJD2A tudor domains.
T1 sequence (O75164 whole entry, species assumed, looked up): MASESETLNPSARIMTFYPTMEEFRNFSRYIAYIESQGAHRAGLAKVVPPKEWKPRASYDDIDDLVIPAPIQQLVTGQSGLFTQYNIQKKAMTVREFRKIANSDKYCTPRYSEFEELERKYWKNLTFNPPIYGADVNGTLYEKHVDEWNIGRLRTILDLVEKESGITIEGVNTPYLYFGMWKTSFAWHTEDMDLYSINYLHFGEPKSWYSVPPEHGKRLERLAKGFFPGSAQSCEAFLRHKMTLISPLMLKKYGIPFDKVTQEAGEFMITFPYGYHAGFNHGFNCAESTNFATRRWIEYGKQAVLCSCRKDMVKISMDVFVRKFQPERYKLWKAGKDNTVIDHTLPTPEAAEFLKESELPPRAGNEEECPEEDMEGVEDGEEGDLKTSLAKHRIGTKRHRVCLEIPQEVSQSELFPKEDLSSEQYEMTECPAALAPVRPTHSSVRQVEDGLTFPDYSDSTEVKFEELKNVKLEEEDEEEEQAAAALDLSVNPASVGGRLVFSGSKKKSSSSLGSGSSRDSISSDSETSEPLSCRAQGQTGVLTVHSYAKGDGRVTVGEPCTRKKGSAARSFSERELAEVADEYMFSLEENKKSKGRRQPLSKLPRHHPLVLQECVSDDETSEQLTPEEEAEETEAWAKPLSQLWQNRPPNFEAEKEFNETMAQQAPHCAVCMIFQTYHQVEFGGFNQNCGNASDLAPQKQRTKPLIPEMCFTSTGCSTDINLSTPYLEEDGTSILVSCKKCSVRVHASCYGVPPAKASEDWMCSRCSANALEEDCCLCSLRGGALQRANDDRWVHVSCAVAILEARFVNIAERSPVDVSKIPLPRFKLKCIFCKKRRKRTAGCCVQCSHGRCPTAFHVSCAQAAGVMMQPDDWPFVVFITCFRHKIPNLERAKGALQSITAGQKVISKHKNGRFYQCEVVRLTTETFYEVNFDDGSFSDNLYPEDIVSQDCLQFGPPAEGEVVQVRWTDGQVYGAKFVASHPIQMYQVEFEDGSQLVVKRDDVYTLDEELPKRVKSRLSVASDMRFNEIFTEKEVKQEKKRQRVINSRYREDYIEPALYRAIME
Described as above.

The target in assay [4] is SGF29 tandem tudor domain (for ITC). The assay is described as above.
SGF29 tandem tudor domain (for ITC), sequence (Q96ES7 whole entry, the tested form may be a part): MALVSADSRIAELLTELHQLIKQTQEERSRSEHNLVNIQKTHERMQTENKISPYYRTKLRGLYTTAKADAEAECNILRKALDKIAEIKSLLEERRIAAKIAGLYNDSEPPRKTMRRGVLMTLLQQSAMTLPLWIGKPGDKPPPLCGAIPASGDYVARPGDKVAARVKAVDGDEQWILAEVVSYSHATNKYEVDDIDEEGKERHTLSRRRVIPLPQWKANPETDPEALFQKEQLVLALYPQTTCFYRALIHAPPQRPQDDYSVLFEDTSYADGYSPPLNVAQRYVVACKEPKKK

Ends that are not written are not given here. Me3 = trimethyllysine (Kme3)

B1: 10-mer H3G4 histone peptide (peptide)
peptide: ARTGQTARKS-OH
Turning to B1, in assay [1], the Kd is 88 µM and the dH was -2.1 kcal/mol.

B2: 10-mer H3K4me3 histone peptide (peptide)
peptide: ARTK(Me3)QTARKS-OH
Take B2: the Kd was determined as 94 nM in assay [2], 940 nM in assay [3] and 1700 nM in assay [4]. Moreover, the dH in assay [2] was -11 kcal/mol; in assay [3], -13.1 kcal/mol; in assay [4], -7.7 kcal/mol.
